Results as given in patent US9090686B2, “Antibodies for the treatment of HIV” (Pierre Fabre Medicament, priority 2009, dated 2015).
Numbering of substitutions follows the chain as printed. In names and notes the source's numbering stands. One block for each molecule: values may come before it.

Legend:
[1] = test system: HIV-1 primary isolate 89.6 (dual X4/R5 virus); experiment: Neutralization assay, multiple rounds of replication on primary PBMC, isolate 89.6; format: cell-based; details: single agent; 90% decrease of viral titer, multiple rounds, day 7 p24 ELISA
Procedure: This assay that combines serial dilutions of c515H7 Mab or Maraviroc or combination of both with serial dilutions of virus, analyzes multiple rounds of infection on PBMC (peripheral blood mononuclear cells). Briefly, quadruplicate 25-μl aliquots of serial dilutions (twofold) of c515H7 Mabs or Maraviroc or combination of both were each incubated with 25 μl of serial dilutions of virus in prehydrated 96-well filter plates (1.25-μm pore size, Durapor Dv; Millipore, Molsheim, France). A control titration of the virus (25 μl of RPMI replacing the diluted c515H7 Mabs or Maraviroc) was performed on the same plate as the titrations in the presence of dilutions of the c515H7 Mabs or Maraviroc or combination of both. After 1 h at 37° C., 25 μl of PHA-stimulated PBMC at a concentration of 4×10^6 cells/ml (pool of PHA activated PBMC from five healthy donors) was added to achieve a 75-μl final culture volume of RPMI, 10% fetal calf serum (FCS), and 20 IU of interleukin-2 (IL-2) per ml (R&D System). After 24 h at 37° C., 100 μl of the same culture medium was added. Two washings (200 μl of RPMI each) were performed by filtration on day 4 to remove the c515H7 Mabs and Maraviroc, and 200 μl of fresh culture medium was added. On day 7, the presence of p24 in the culture supernatants was measured by ELISA and compared to that of the negative controls (cultures infected with dilutions of virus and maintained in the presence of 10^−6 M zidovudine [AZT]) to determine positive wells. […]
This assay that combines serial dilutions of hz515H7 Mab or Maraviroc or combination of both with serial dilutions of virus, analyzes multiple rounds of infection on PBMC (peripheral blood mononuclear cells). […] On day 7, the presence of p24 in the culture supernatants was measured by ELISA and compared to that of the negative controls (cultures infected with dilutions of virus and maintained in the presence of 10^−6 M zidovudine [AZT]) to determine positive wells. […]

[2] = target: T1, human CXCR4 (Homo sapiens, UniProt P61073); experiment: SDF-1-induced calcium release in CHO-CXCR4 cells; format: cell-based; design: expressed in transfected cells; details: SDF-1 100 nM, recombinant CHO/CXCR4, at about 40 sec.
Excerpt: This functional assay was designed to monitor CXCR4 receptor signaling via stimulation of the phospholipase C pathway, inducing calcium liberation from intracellular stores from the endoplasmic reticulum.
CHO-K1 cells, stably and constitutively expressing human CXCR4 receptor were obtained upon transfection of naïve CHO-K1 cells (ATCC CCL-61) with a mammalian expression vector carrying the whole coding sequence of human CXCR4 receptor (RefSeq NM_003467). Cells were propagated in complete culture medium [DMEM-Ham's F12 supplemented with 5% fetal calf serum (FCS) and 500 μg/ml of geneticin]. Cells were plated in black 96MW plates at a density of 100,000 cells/well in appropriate culture medium. Cells were starved overnight before conducting the experiments. Cells are loaded with the fluorescent calcium dye (Fluo-4 No Wash, Invitrogen US) in loading buffer [HBSS 1×, HEPES 20 mM, Probenicid acid 25 mM] for 30 min. at 37° C. followed by 30 min. at 25° C. Stimulation by SDF-1 was performed by direct injection into each well. For antagonism experiments, 10 μl of Mab solution are added directly into the loading buffer at least 10 min. before SDF-1. Kinetic fluorescence measurements are performed on a multi-mode fluorescence microplate reader Mithras LB940 (Berthold) using the following settings: excitation at 485 nm, emission at 535 nm, excitation energy at 10000 arbitrary units. Fluorescence in each well is recorded during 0.1 second every second and for a time period of 20 sec. prior SDF-1 injection (basal signal). Then 20 μl of SDF-1 are injected and data recording follows for a time period of 2 min. Each experimental condition is performed in duplicate. Values for each well are first corrected by subtracting the basal fluorescence and the fluorescence emitted by a control well without cells. Relative data are expressed as a percentage of the maximal stimulation obtained by SDF-1 (100 nM).

[3] = target: T2, CXCR4 homodimer (Homo sapiens, UniProt P61073); experiment: BRET on HEK293 cells expressing CXCR4/Rluc+CXCR4/YFP; format: cell-based
T2 construct: expressed in transfected cells; host or cells: HEK293, transient transfection
Excerpt: This functional assay allows to evaluate the conformational changes induced upon SDF-1 and/or 515H7 Mab binding to CXCR4 receptor at the level of CXCR4 homodimer.
(§1) Expression vectors for the investigated interaction partners were constructed as fusion proteins with the corresponding dye (Renilla reniformis luciferase, Rluc and Yellow fluorescent protein, YFP) by applying conventional molecular biology techniques. Two days prior performing BRET experiments, HEK293 cells were transiently transfected with expression vectors coding for the corresponding BRET partners: [CXCR4/Rluc+CXCR4/YFP] to study CXCR4 homodimerization. The day after, cells were distributed in poly-lysine pre-coated white 96 MW plates in complete culture medium [DMEM supplemented with 10% FBS]. Cells were first cultivated at 37° C. with CO2 5% in order to allow cell attachment to the plate. Cells were then starved with 200 μl DMEM/well overnight Immediately prior to the BRET experiment, DMEM was removed and cells were quickly washed with PBS. Cells were then incubated in PBS in the presence or absence of antibody, 10 min at 37° C. prior to the addition of coelenterazine H 5 μM with or without SDF-1 300 nM in a final volume of 50 μl. After incubation for further 10 minutes at 37° C., light-emission acquisition at 485 nm and 530 nm was initiated using the Mithras LB940 multilabel reader (Berthold) (1 s/wavelength/well repeated 15 times at room temperature).
(§2) Calculation of BRET ratio was performed as previously described (Angers et al., 2000): [(emission530 nm)−(emission485 nm)×Cf]/(emission485 nm), where Cf=(emission530 nm)/(emission485 nm) for cells expressing the Rluc fusion protein alone under the same experimental conditions. […] For sake of readability, results are expressed in mi11iBRET units (mBU); mBU corresponds to the BRET ratio multiplied by 1000.
This functional assay allows to evaluate the conformational changes induced upon SDF-1 and/or c515H7 Mab binding to CXCR4 receptor at the level of CXCR4 homodimer.
as §1, with “Cells were then incubated in PBS in the presence or absence of antibody, 10 min at 37° C. prior to the addition of coelenterazine H 5 μM with or without SDF-1 300 nM in a final volume of 50 μl.” left out
as §2, with “milliBRET” for “mi11iBRET”, “1000. […]” for “1000.”

[4] = target: T1, human CXCR4; experiment: Cross blocking of biotinylated murine 515H7 on CXCR4 transfected NIH3T3 cells, flow cytometry; format: binding; design: expressed in transfected cells; host or cells: NIH3T3 (mouse fibroblasts)
Procedure: FIG. 19: Cross blocking of the biotinylated murine antibody 515H7 by the chimeric 515H7 and different variants of the humanized 515H7. The activity of the humanized variants of 515H7 (hz515H7) to cross block the parental murine antibody 515H7 was evaluated by flow cytometry using CXCR4 transfected NIH3T3 cells. The activity of the humanized variants was compared to the chimeric 515H7.
Binding of humanized variants of 515H7 was determined on a NIH3T3 cell line stably transfected with human CXCR4. The binding activity was evaluated by a competition assay with the biotinylated mouse antibody. In a second attempt, humanized antibodies were evaluated for their ability to inhibit binding of biotinylated SDF-1 to RAMOS cells. RAMOS cells were chosen because of their high expression of CXCR4 and low expression of CXCR7 and SDF-1.
In a first series of experiments, the anti-CXCR4 binding activities of the three first humanized variants were analysed. The VH variant 1 (VH1) was combined with the murine VL and these constructs were evaluated in their capacity to inhibit the binding of a biotinylated murine 515H7 parental antibody. The amino acid sequence of the variable domain of VH1 comprises the SEQ ID No. 90 whereas the nucleotide sequence comprises the SEQ ID No. 91. […]

T1 sequence (P61073 whole entry): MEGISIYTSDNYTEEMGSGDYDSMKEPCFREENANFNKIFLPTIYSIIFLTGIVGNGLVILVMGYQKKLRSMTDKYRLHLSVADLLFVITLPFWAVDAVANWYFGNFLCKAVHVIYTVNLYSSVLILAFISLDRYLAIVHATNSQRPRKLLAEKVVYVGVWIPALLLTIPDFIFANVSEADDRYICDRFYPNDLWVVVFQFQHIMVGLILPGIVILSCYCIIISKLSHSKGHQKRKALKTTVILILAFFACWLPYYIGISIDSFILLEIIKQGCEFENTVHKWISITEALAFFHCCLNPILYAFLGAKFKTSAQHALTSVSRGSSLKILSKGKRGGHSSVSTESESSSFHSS
T2 sequence (P61073 whole entry): as above
T2 sequence (P61073 whole entry): as above

Molecule: Maraviroc [reference compound]
IC90 [1]: > 50 µg/mL

maximal intensity of calcium signal [2]: > 140 % over basal fluorescence | increase of BRET signal ([3]; SDF-1 300 nM): about 20%
Molecule: SDF-1: Stromal-cell-Derived Factor-1, the natural ligand of CXCR4 [reference compound]

cross blocking of biotinylated murine 515H7, compared to chimeric 515H7 [4]: No reduction in the activity
B1: hz515H7 VH1 VL2: humanized VH variant 1 (no back mutations) combined with variant 2 of VL (antibody, V domains shown)
VH: EVQLVESGGGLVQPGRSLRLSCTASGFTFTDNYMSWVRQAPGKGLEWVGFIRNKANGYTTEYAASVKGRFTISRDDSKSIAYLQMNSLKTEDTAVYYCARDVGSNYFDYWGQGTLVTVSS
VL: DIVMTQSPSSLAVSLGERATMSCKSSQSLFNSRTRKNYLAWYQQKPGQSPKLLIYWASARDSGVPARFTGSGSETYFTLTISRVQAEDLAVYYCMQSFNLRTFGQGTKVEIK

inhibition of SDF-1-induced BRET increase ([3]; SDF-1 100 nM): about 88%
B2: hz515H7 VH1 D76N VL2: humanized 515H7 Mab; variable domains VH1 D76N (SEQ ID No. 64) and VL2 (SEQ ID No. 65) (antibody, listed as Mus musculus, V domains shown)
VH: B1 VH with D76N
VL: B1 VL
